The text below walks through data of patent publication US20220267458A1 (Innovent, published 2022).

Where a chain is given by its changes, count along the chain named.

Sequences and labels used below:
B1: hcIgG-20 (antibody, V domains shown)
VH: QVQLQESGGGSVQAGGSLRLSCASSGYSRTSRWMAWFRQAPGKEREGVAAIYTGGSSTLYANSMADRVTISQDNAKNTVYLRMNNLKPEDTAMYYCAADKLAGDFWLVDRWRAWGQGTQVTVSS
notes: also called heavy-chain antibody of Nb-20
B2: HzhcIgG-20 (antibody, V domains shown)
VH: QVQLQESGGGLVQPGGSLRLSCAASGYSRTSRWMAWFRQAPGKGLEGVAAIYTGGSSTLYADSVKGRFTISRDNAKNSVYLQMNSLRAEDTAVYYCAADKLAGDFWLVDRWRAWGQGTLVTVSS
notes: Humanized heavy-chain antibody without light chain; also called humanized hcIgG-20; humanized HcIgG
B3: hcIgG-09 (antibody, V domains shown)
VH: QVQLQESGGGLVQPGGSLRLSCGASGFTFSSTAMWWFRQAPGKGLEWVSSITSDVSGTYYADSVQGRFTISRDNGKNTVYLQMNSLRSEDTALYYCATSCGFSGGTWSCKYRGQGTQVTVSS
notes: also called heavy-chain antibody of Nb-09
B4: hcIgG-02 (antibody, V domains shown)
VH: QVQLQESGGGSVQAGGSLRLSCAASRDTYTRYFMGWFRQTPGKEGEGVAVLLPGGDYTFYADSVKGRFTITQDSAKNTVYLQMNSLKPEDTAMYYCAADVTVGSRWSQASNYNYWGQGTQVTVSS
notes: also called heavy-chain antibody of Nb-02
B5: hcIgG-07 (antibody, V domains shown)
VH: QVQLQESGGGLVQAGGSLKLSCTVSGFAFGSSHMSWVRRAPGKGLEWVSTIHSGGGFGDYANSVQGRFTISRDVAKNTLYLQMNSLKPEDTAIYYCALATDWRKPPGQGTQVTVSS
notes: also called heavy-chain antibody of Nb-07
B6: hcIgG-10 (antibody, V domains shown)
VH: B5 VH with A14P, K19R, T23A, V24A
notes: also called heavy-chain antibody of Nb-10
B7: hcIgG-03 (antibody, V domains shown)
VH: QVQLQESGGGSVQAGGSLRLSCAASGYTYSGYCMGWFRQAPGKEHEGVASIVSGLGRPYYADSVKGRFTISQDNAKNTVYLQMNSLKPEDTAMYYCAAEWATKLCSEIPATEWDYWGQGTQVTVSS
notes: also called heavy-chain antibody of Nb-03
B8: hcIgG-16 (antibody, V domains shown)
VH: QVQLQESGGGSVQAGGSLRLSCAASGYTYNKYSWGWFRQAPGKEREGVAGIDSDGSTSYADSVKGRFTISKDNTKNTLYLQMNSLKPEDTAMYYCAASDWVSAIQALGVLAVRPYEYWGQGTQVTVSS
notes: also called heavy-chain antibody of Nb-16

The target in the first assay is T1, human GITR overexpressed on CHO cells (CHO-GITR) (human, UniProt Q9Y5U5 26-241).
T1 construct: whole, on cells; also called cell surface GITR protein; antigen expressed on the cell surface
T1 sequence (looked up): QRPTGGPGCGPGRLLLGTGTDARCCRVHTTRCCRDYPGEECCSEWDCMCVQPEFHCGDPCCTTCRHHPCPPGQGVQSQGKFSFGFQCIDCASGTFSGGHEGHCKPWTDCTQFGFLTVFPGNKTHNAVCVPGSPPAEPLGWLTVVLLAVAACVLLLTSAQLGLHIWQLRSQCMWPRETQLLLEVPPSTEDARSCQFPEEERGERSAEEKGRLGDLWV
Briefly: flow cytometry on CHO-GITR cells, PE anti-human Fc detection, MFI. (In general: In flow cytometry, cells or beads pass a laser one at a time.)
As a reminder, the EC50 (read off the curve) is the concentration at which the effect is half-maximal. A lower EC50 (read off the curve) goes with an effect from little substance. Consider B1, for which the “EC50 (read off the curve)” value was approximately 2 nM.
As for B2, the “EC50 (read off the curve)” value is approximately 2 nM.

The target in a further assay is GITR protein overexpressed on Hela cells (Hela-GITR-NF-κB-Luc-Rep). Briefly: cell-based or functional assay.
For B1, the “EC50 for the activation (NF-κB luciferase reporter)” value amounted to 0.689 nM.
Regarding B2, the “EC50 for the activation (NF-κB luciferase reporter)” value came out at 0.663 nM.

A further assay has as its target T2, human GITR-His (human, UniProt Q9Y5U5 26-161).
T2 construct: Bought from Acro biosystems; also called GITR-His (Acro biosystems); antigen GITR-His
T2 sequence: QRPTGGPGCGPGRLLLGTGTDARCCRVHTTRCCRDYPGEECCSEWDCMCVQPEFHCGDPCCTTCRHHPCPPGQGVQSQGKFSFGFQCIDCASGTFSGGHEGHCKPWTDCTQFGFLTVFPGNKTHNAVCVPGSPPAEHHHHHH
Briefly: ForteBio BLI, antibody on AHQ tip, human GITR-His 100 nM in solution, 1:1 model. As for the experimental part:
(§1) (2) Experimental procedure: 100 μl of SD buffer and antibodies (hcIgG-02, hcIgG-03, hcIgG-04, hcIgG-07, hcIgG-09, hcIgG-10, hcIgG-16 and hcIgG-20, control antibody), GITR-His (Acro biosystems) were added to a 96-well half-volume black polystyrene microplate. The plate was arranged according to the positions of the samples, the position of the sensor was selected, and the operation procedures were set as: Baseline, Loading ˜1 nm, Baseline, Association and Dissociation, each running for a time depending on the binding and dissociation rates of the sample, at a rotation speed of 400 rpm and a temperature of 30° C.
(3) A 1:1 binding model was adopted for kinetic analysis.
(In general: BLI is a label-free optical method that tracks binding on a fibre tip over time.)
A word on the Kd: it is the equilibrium constant for the complex coming apart. The term koff denotes a measure of how fast the partners let go of each other. Lower therefore signals slow dissociation. As usually defined, the kon is a measure of how fast the partners come together. Low values mean slow association, high ones fast association. Molecule B3 showed a Kd of 1.89 nM, a koff of 0.000487 s⁻¹ and a kon of 257000 M⁻¹ s⁻¹.
In turn, B4 showed a dissociation constant Kd of 6.33 nM, a koff of 0.00214 s⁻¹ and a kon of 338000 M⁻¹ s⁻¹.
B1 registered a Kd of 1.85 nM, a dissociation rate constant (koff) of 0.000646 s⁻¹ and an association rate constant (kon) of 349000 M⁻¹ s⁻¹.
Molecule B5 had a dissociation constant Kd of 4.08 nM, a koff of 0.00099 s⁻¹ and an on-rate constant (kon) of 243000 M⁻¹ s⁻¹.
Molecule B6 registered a dissociation constant (Kd) of 3.22 nM, a dissociation rate constant (koff) of 0.000742 s⁻¹ and a kon of 231000 M⁻¹ s⁻¹.
With B7, the Kd came out at 5.3 nM, the off-rate constant (koff) came to 0.00172 s⁻¹ and the kon amounted to 324000 M⁻¹ s⁻¹.
As for B8, the dissociation constant Kd was 9.81 nM, the dissociation rate constant (koff) came out at 0.00114 s⁻¹ and the on-rate (kon) is 117000 M⁻¹ s⁻¹.

The next assay addresses T1, human GITR overexpressed on CHO cells …. Briefly: flow cytometry on CHO-GITR cells, PE anti-human Fc detection, MFI; direct binding titration, the table row is labelled IC50, nM is taken from the concentration axis. How it is done:
(1) Cell preparation: The pCHO1.0 vector (Invitrogen) carrying human GITR cDNA cloned to a multiple cloning site (MCS) was transfected into Chinese hamster ovary cancer cells (CHO) (Invitrogen) to produce human GITR-overexpressing CHO cells (CHO-GITR), the CHO cells (CHO-GITR) overexpressing human GITR on the surface thereof were counted, and diluted to 1×10⁶ cells/mL, and added to a U-bottom 96-well plate with 100 μL/well.
(1) Detection: The cell suspension was centrifuged at 400 g for 5 min to remove the cell medium. Serial dilutions of the sample were added to a U-shaped plate, and then the cells were resuspended and added to the plate with 100 μL/well. The plate was put onto the ice to stand for 30 min The cell suspension was centrifuged at 400 g for 5 min, and the supernatant was discarded. The cells were washed once with PBS, and then centrifuged at 400 g for 5 min to remove PBS. 100 μL of the solution of PE-conjugated anti-human Fc antibody (Jackson Immuno Research) diluted at a ratio of 1:200 was added to each well, and the cells were incubated in dark on the ice for 30 min The cell suspension was centrifuged at 400 g for 5 min, and the supernatant was discarded. The cells were washed once with PBS. The cells were resuspended with 100 μL of PBS.
One may read the IC50 as the concentration needed to halve the response being measured. A low value points to inhibition by little substance. B3 gave an IC50 of 4.89 nM. This counts as single-digit nanomolar.
Regarding B4, the IC50 came out at 41.2 nM.
Still for that read-out and setting: with B1 the figure was 0.511 nM.
B5 showed an IC50 of 1.44 nM.
Same read-out and setting: with B6 the figure was 1.47 nM; with B7, 102 nM.
In turn, B8 yielded an IC50 of 34.1 nM.

In the next assay the target is T2, human GITR-His. Briefly: ForteBio BLI, antibody on AHQ tip, human GITR-His 100 nM in solution. As for the experimental part:
as §1
In this experiment, binding kinetics and affinity for the antibody hcIgG-20 before humanization and the antibody HzhcIgG-20 after humanization were determined using the ForteBio method in the same way as in Example 3. ForteBio results are listed in Table 4. hcIgG-20 and HzhcIgG-20 retain the binding ability to GITRs, and the affinity is higher than the control antibody TRX518.
In turn, B1 showed a Kd of 4.35 nM, a koff of 0.000917 s⁻¹ and a kon of 211000 M⁻¹ s⁻¹.
The corresponding values for B2 are 4 nM, 0.00128 s⁻¹ and 321000 M⁻¹ s⁻¹.
